Target: T1, bovine serum albumin (bovine, UniProt P02769 25-607)
T1 construct: also called BSA
Assay: SELDI-TOF ProteinChip, protein covalently bound to PS-1 chip, SP added
Experimental: HGFIN-SP interaction was studied by pre-treating the PS1 chips with 50% acetonitrile for 3 min. After this, the chips were incubated for 45 min with the following: 2.5 μg HGFIN (experimental sample), anti-Id2, an unrelated IgG regarding its ability to complex with SP and was therefore treated as a negative control, rabbit anti-SP (positive control) or 20 ng fibronectin, fragment III-C (positive control). The arrays were blocked for 25 min with 1M ethanolamine and washed with PBS+0.5% Triton X (2×) and a final PBS wash step. After this the chips were washed with PBS+Triton-x, PBS, rinsed with 5 mM Hepes and then dried. CHCA was applied and the non-covalently bound SP was detected with the SELDI-Time of Flight Mass spectrometer as described for the profiling studies for HGFIN.
Fibronectin has been reported to bind SP. Therefore, this property of fibronectin was used as a positive control for SP interaction on the SELDI system. […] Similar results were shown with another positive control: rabbit anti-SP (covalently bound) and SP (FIG. 4C, lower chromatogram). No peak was detected in two negative controls, which consisted of bovine serum albumin or an unrelated antibody (anti-Id2) covalently bound to the surface of PS-1.

T1 sequence (P02769 25-607 limits assumed): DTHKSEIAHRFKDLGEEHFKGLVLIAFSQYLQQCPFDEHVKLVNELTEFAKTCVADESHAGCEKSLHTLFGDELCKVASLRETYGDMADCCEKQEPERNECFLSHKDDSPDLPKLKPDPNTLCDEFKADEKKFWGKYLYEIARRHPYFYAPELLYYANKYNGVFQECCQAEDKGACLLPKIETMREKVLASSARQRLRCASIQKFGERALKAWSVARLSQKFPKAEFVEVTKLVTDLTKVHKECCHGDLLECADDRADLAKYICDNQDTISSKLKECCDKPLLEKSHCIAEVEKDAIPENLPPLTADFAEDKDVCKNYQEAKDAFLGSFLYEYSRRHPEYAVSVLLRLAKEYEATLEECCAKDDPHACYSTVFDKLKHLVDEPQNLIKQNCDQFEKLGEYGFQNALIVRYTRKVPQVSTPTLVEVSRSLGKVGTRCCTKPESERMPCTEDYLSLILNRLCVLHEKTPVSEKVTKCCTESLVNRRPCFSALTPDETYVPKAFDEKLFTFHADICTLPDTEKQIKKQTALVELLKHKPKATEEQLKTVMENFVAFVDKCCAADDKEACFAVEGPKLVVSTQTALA

B1: Substance P (peptide, UniProt P20366 58-68, looked up)
peptide: RPKPQQFFGLM
notes: Substance P is an 11-residue peptide cut from it; 2 ug was added to the chips; also called SP
Does B1 bind?
Result: no binding

Source: US20030202938A1 (UNIVERSITY OF MEDICINE AND DENTISTRY OF NEW JERSEY, published 2003)
